Experimental data reported in PMC9191617 (Glycobiology, 2022).

Target: the molecule itself
Assay: crystal structure

B1: CML1 (C. cinerea Mucin-binding Lectin 1), recombinant untagged (natural protein, Coprinopsis cinerea, UniProt B3VS76 1-127, looked up)
chain: MAIFHTGSELFIITRGPGKLTLLTWGGLNNLRSVIGAIPTENTGVTKWAVSFSHNYTRFSFIWEGQGEACYQIGNGLTRSPVGRSWSSSSTIHWGSSTVITEDVTSVVPGAVNRDKVTTAYALPDNL
- stoichiometry N: 6
